This series deals with the molecule itself. Description: cross-linking; glutaraldehyde cross-linking, Western blot of PKM2 oligomers; Mtx2 KO H9C2 cells overexpressing MTX2 mutants, H/R. Background: Immunoblotting shows a protein as a band on a membrane.

Several values for one entry are separate records, joined by “and”; a condition that tells them apart may be missing. Equal values may be shown once.

In general, stoichiometry N refers to the number of molecules, sites or subunits per partner or assembly.

B1: PKM2 in Mtx2 KO H9C2 cells (cross-linking) (enzyme)
chain: not shown
notes: pyruvate kinase PKM, splice isoform M2; also called dimeric PKM2; source: Mtx2 KO H9C2 cells overexpressing MTX2 mutants, H/R
B1: the “stoichiometry N” value was 2 and 4.

Values taken from PMC12203670, “MTX2 facilitates PKM2 tetramerization to promote cardiac glucose metabolism and protects the heart against ischemia/reperfusion injury” (Theranostics, 2025).
